Columns and labels:
Assay in all cases: purified protein
Conditions in all cases: no added Zn(II), 20 mM HEPES pH 7.5, 30°C
[1] = test system: CC1=C(C(=O)O)N2C(=O)[C@@H](NC(=O)[C@H](N)c3ccccc3)[C@H]2SC1
[2] = test system: CC1(C)S[C@@H]2[C@H](NC(=O)[C@H](N)c3ccccc3)C(=O)N2[C@H]1C(=O)O; assay type: biochemical, Serratia marcescens
Description: (§1) steady-state hydrolysis, UV-VIS spectrophotometry on IMP-1

[3] = test system: C[C@@H](O)[C@H]1C(=O)N2C(C(=O)O)=C(SCCN=CN)C[C@H]12; assay type: biochemical, Serratia marcescens
Description: as §1

[4] = test system: C[C@@H](O)[C@H]1C(=O)N2C(C(=O)O)=C(S[C@@H]3CN[C@H](C(=O)N(C)C)C3)[C@H](C)[C@H]12; assay type: biochemical, Serratia marcescens
Description: as §1

[5] = test system: CC1(C)S[C@@H]2[C@H](NC(=O)Cc3ccccc3)C(=O)N2[C@H]1C(=O)O; assay type: biochemical, Serratia marcescens
Description: as §1

[6] = test system: CC(=O)OCC1=C(C(=O)O)N2C(=O)[C@@H](NC(=O)Cc3cccs3)[C@H]2SC1; assay type: biochemical, Serratia marcescens
Description: as §1

[7] = test system: CO/N=C(\C(=O)N[C@@H]1C(=O)N2C(C(=O)O)=C(COC(C)=O)CS[C@H]12)c1csc(N)n1; assay type: biochemical, Serratia marcescens
Description: as §1

[8] = test system: CC(C)(O/N=C(\C(=O)N[C@@H]1C(=O)N2C(C(=O)[O-])=C(C[n+]3ccccc3)CS[C@H]12)c1csc(N)n1)C(=O)O; assay type: biochemical, Serratia marcescens
Description: as §1

[9] = test system: CC1(C)S[C@@H]2[C@H](NC(=O)[C@H](N)c3ccccc3)C(=O)N2[C@H]1C(=O)O; assay type: biochemical, Morganella morganii
Description: (§2) steady-state hydrolysis, UV-VIS spectrophotometry on IMP-27

[10] = test system: C[C@@H](O)[C@H]1C(=O)N2C(C(=O)O)=C(S[C@@H]3CN[C@H](C(=O)N(C)C)C3)[C@H](C)[C@H]12; assay type: biochemical, Morganella morganii
Description: as §2

[11] = test system: CC1(C)S[C@@H]2[C@H](NC(=O)Cc3ccccc3)C(=O)N2[C@H]1C(=O)O; assay type: biochemical, Morganella morganii
Description: as §2

[12] = test system: CC(=O)OCC1=C(C(=O)O)N2C(=O)[C@@H](NC(=O)Cc3cccs3)[C@H]2SC1; assay type: biochemical, Morganella morganii
Description: as §2

[13] = test system: CO/N=C(\C(=O)N[C@@H]1C(=O)N2C(C(=O)O)=C(COC(C)=O)CS[C@H]12)c1csc(N)n1; assay type: biochemical, Morganella morganii
Description: as §2

[14] = test system: CC(C)(O/N=C(\C(=O)N[C@@H]1C(=O)N2C(C(=O)[O-])=C(C[n+]3ccccc3)CS[C@H]12)c1csc(N)n1)C(=O)O; assay type: biochemical, Morganella morganii
Description: as §2

## IMP-1 (Serratia marcescens)
[1]
  Km: 18.5 ± 2.9 µM
  kcat: 75.1 s⁻¹
  kcat/Km: 4.06e+06 M⁻¹ s⁻¹
[2]
  Km: 41.8 ± 7.6 µM
  kcat: 37.6 ± 3.1 s⁻¹
  kcat/Km: 899000 M⁻¹ s⁻¹
[3]
  Km: 48.6 ± 10.2 µM
  kcat: 87.6 ± 4.5 s⁻¹
  kcat/Km: 1.88e+06 M⁻¹ s⁻¹
[4]
  Km: 83.3 ± 16.1 µM
  kcat: 25.1 ± 4.4 s⁻¹
  kcat/Km: 301000 M⁻¹ s⁻¹
[5]
  Km: 144 ± 6 µM
  kcat: 367 ± 38 s⁻¹
  kcat/Km: 2.56e+06 M⁻¹ s⁻¹
[6]
  Km: 1.62 ± 0.21 µM
  kcat: 82.5 ± 5.9 s⁻¹
  kcat/Km: 5.11e+07 M⁻¹ s⁻¹
[7]
  Km: 3.44 ± 0.12 µM
  kcat: 26 ± 1.8 s⁻¹
  kcat/Km: 7.55e+06 M⁻¹ s⁻¹
[8]
  Km: 38.1 ± 1.6 µM
  kcat: 14.2 ± 0.8 s⁻¹
  kcat/Km: 373000 M⁻¹ s⁻¹

## IMP-27 (Morganella morganii)
[9]
  kcat: > 7.25 s⁻¹
  kcat/Km: 28800 M⁻¹ s⁻¹
[10]
  Km: 4.21 ± 0.29 µM
  kcat: 6.79 ± 0.8 s⁻¹
  kcat/Km: 1.63e+06 M⁻¹ s⁻¹
[11]
  Km: 218 ± 28 µM
  kcat: 20.3 ± 2.2 s⁻¹
  kcat/Km: 93200 M⁻¹ s⁻¹
[12]
  Km: 9.23 ± 0.88 µM
  kcat: 290 ± 39 s⁻¹
  kcat/Km: 3.14e+07 M⁻¹ s⁻¹
[13]
  Km: 6.57 ± 0.96 µM
  kcat: 50.7 ± 6.6 s⁻¹
  kcat/Km: 7.72e+06 M⁻¹ s⁻¹
[14]
  Km: 27.5 ± 3.4 µM
  kcat: 2.02 ± 0.3 s⁻¹
  kcat/Km: 73200 M⁻¹ s⁻¹
[1]
  Km: 5.47 ± 0.53 µM
  kcat: 1.19 s⁻¹
  kcat/Km: 217000 M⁻¹ s⁻¹
